Source: patent US20260258115A1 (MAPP BIOPHARMACEUTICAL, published 2026)

Tests used:
[1] = biological target: RSV prefusion F (preF), DS-Cav1 (Respiratory syncytial virus, UniProt P03420 26-513); test: BLI, IgG on anti-human IgG sensor, 100 nM antigen
[2] = biological target: RSV postfusion F (postF), F ΔFP (Respiratory syncytial virus, UniProt P03420 26-513); test: BLI, IgG on anti-human IgG sensor, 100 nM antigen
[3] = biological target: RSV F on RSV-A2 virus (Respiratory syncytial virus, RSV-A2, UniProt P03420 26-574); test: cell-based or functional assay

Binder | Kd [1] | Kd [2] | Neutralization IC50 (RSV subtype A) [3]
ADI-41570 (antibody, V domains shown, also called Ab 848; Antibody Number 848) VH: QVQLVQSGAEVKKPGSSVKVSCMASGGTFSNSAINWVRQAPGQGLEWMGGTIPIFGAANYAQRFQARVTITADKSTSTAYMELTSLRSDDTAVYYCVRTPHRSSDHIWGSYRYFDSWGQGTLVTVSS VL: QSVVTQEPSVSAAPGQKITISCSGSTSNIGINYVSWYQQFPGTAPKLLIYDNDKRPSGIPDRFSGSKSGTSATLGITGLQAGDEADYYCGTWDSSLSAGHIFGGGTKVTVL | 2.97 nM | 1.12 nM | 25 µg/mL
ADI-41561 (antibody, V domains shown) VH: QVQLVQSGPTLVKPTQTLTLTCSFSGFSLTNTGVGVGWIRQPPGKALEWLALIYWDDDKRYRPSLKSRLTITKDTSKSQVVLTMTNMDPLDTATYYCAHRRSAYDPIYFDYWGQGALVTVSS VL: DIRVTQSPSSVSASVGDRVTITCRASRSINNWLAWYQQKPGKAPKLLIYAASSLQSGVPSRFSGSGYGTDFTLTISSLQPEDFATYYCQQAHSFPSITFGQGTRLEIK | 3.33 nM | 0.516 nM | > 25 µg/mL
ADI-41581 (antibody, V domains shown, also called Ab 855; Antibody Number 855) VH: EVQLLESGSELKKPGASVKISCKTSGYTFTNYLMNWVRQAPGQGLEWMGWINTHTGNPTYAQDFTGRFVFSLDTSVNTAYLQISSLKAEDTAIYYCARDGLEAFSGYNGVDYWGQGTLVTVSS VL: DIVMTQTPLSLPVTPGEPASISCRSSPSLLHSNGYNYLDWYLQKPGQSPQLLIYLGSTRASGVPDRFSGSGSGTDFTLRISRVEAEDVGVYYCMQALQIPLTFGQGTKLEIK | 2.77 nM | 0.361 nM | > 25 µg/mL
ADI-41552 (antibody, V domains shown) VH: EVQLLESGGGLVQPGGSLRLSCAASGFTFSPYSMNWVRQAPGKGLEWVSYISRSGSFKYYADSVKGRFTISRDDAKNSLYLHMNSLRDDDTAVYYCVSYCSSATCHQRFDYWGQGTLVTVSS VL: EIVLTQSPATLSLSPGERATLSCRASQSVNSYLAWYQQKPGQAPRLLIYDASNRATGIPARFSGSGSGTDFTLTISSLEPEDFAVYYCQERNSWPKLTFGGGTKVEIK | 3.44 nM | 0.522 nM | > 25 µg/mL
ADI-41811 (antibody, V domains shown) VH: QVQLQQSGPRLVKPSHTLSLTCVISGDSVSSGSAAWSWIRQSPSRGLEWLGRTYYRSKWYYDYAVSVKGRIIIQPDTSKNQFSLQLNSVSPEDTAVYYCARDPDSGNYFHYYGMDVWGQGTTVTVSS VL: DIVMTQSPATLSLSPGERATLSCRASQSVDVYFAWYQQKPGQAPRLLIYDASKRASGVPARFSGSASGTDFTLTISSLEPEDFAVYYCQQRAKWPPYTFGQGTKLEIK | 1.64 nM | 0.744 nM | > 25 µg/mL
ADI-41558 (antibody, V domains shown, also called Ab 840; Antibody Number 840) VH: EVQLLESGGGLVKPGGSLRLSCEVSGFPFSDYYVSWIRQAPGKGLEWLSYSSRGGIYTNYADSVKGRFTISRDNDKNSLFLQMNSLRAEDTAVYYCARDRSDIWSGRVGFDYWGQGTLVTVSS VL: DIVMTQSPATLSLSPGERATLSCRASQSVSSSYLAWYQQKPGQAPRLLIYGASSRATGIPDRFSGSGSGTDFTLTISRLEPEDFAVYYCQQYNKSPPGYIFGPGTKVDIK | 3.02 nM | 0.7 nM | > 25 µg/mL
ADI-41564 (antibody, V domains shown, also called Ab 844; Antibody Number 844) VH: QVQLVQSGAEVKKPGSSVKVSCKAFGGTLRRYALSWVRQAPGQGLEWMGGIIPVFGTRRYAQKFQGRITITADGSTSTASMEVSSLRFEDTAIYYCATVYFDFVSGPPPTYYYYYMDVWGKGTTVTVSS VL: DIVMTQSPGTLSLSPGERATLSCRASQSVSSSYLAWYQQKPGQAPRLLIYGASSRATGIPDRFSGSGSGTDFTLTISRLEPEDFAVYYCQQYDSSLRVLTFGGGTKVDIK | 4.44 nM | 0.596 nM | > 25 µg/mL
ADI-41808 (antibody, V domains shown, also called Ab 916; Antibody Number 916) VH: QVQLVQSGAELKKPGSSVRISCKVSGVTSDNYAITWVRQAPGQGLEWMGRVIPIFPVPQYAQKFQGRVTLSADKSTRTAYLELHSLRSEDTATYYCATHRPSDSWGQGTLVTVSS VL: DIRVTQSPSTLSASVGDRVTITCRASQNINSWLAWYQQKPGKAPKLLIFKASSLESGVPARFSGSGFGTEFTLTITSLQPDDFASYYCQQYDTYPYPFGQGTKVEIK | 13.9 nM | 22.5 nM | > 25 µg/mL
ADI-41555 (antibody, V domains shown) VH: EVQLVESGPGLVKPSQTLSLTCSVSGGSISSGIHYWSWIRQHPGKGLEWIGYIYYSGSTYYNPSLESRITISVDTSKNQFSLKVSSVTAADTAVYYCARVNRASRMTTFGVANERSIYYFMDVWGKGTTVTVSS VL: ETTLTQSPATLSLSPGERATLSCRATQSVGNYLAWYQQKPGQAPRLLIHDASNRATGIPARFSGSGSGTDFTLTISSLEPEDFAVYYCQLRINWLFTFGPGTKVEIK | 5.69 nM | 1.12 nM | 25 µg/mL
ADI-41557 (antibody, V domains shown, also called Ab 839; Antibody Number 839) VH: EVQLLESGPGLVKPSETLSLTCNVSGGSISSYYWSWIRQSPGKGLEWIGHIYDTGYTNYNPSLKSRVTMSVDTSKNRFSLKLDSVTAADTAVYYCARGRGWRNLYNWFDPWGQGTLVTVSS VL: DIVMTQSPATLSVSPGERATLSCRTSQSFSSMLAWYQQKPGQAPRLLIYGASTRATGIPARFSGSGSATEFTLTISNLQSEDVAVYYCQQYNSWPLTFGGGTKVEIK | 30.9 nM | 86.1 nM | > 25 µg/mL
ADI-41579 (antibody, V domains shown) VH: QVQLVESGAEARKPGSSVKVSCKLSGGTFSTDPISWVRQAPGQGLEWMGRIIPLLGIANYAQKFQGRVTIIADKSTSTVYMELRNLRFEDTAVYFCARRGDGYYGMDVWGQGTTVTVSS VL: QSVLTQPASVSGSPGQSITISCTGTSNDIGGYDYVSWYQQHPGKAPKLMIYDVHNRPSGVSNRFSGSKSGNTASLTISGLQAEDEADYYCSSFSDSGNLYVFGTGTKLTVL | 0.471 nM | 0.36 nM | 0.209 µg/mL
ADI-41554 (antibody, V domains shown, also called Ab 836; Antibody Number 836) VH: EVQLVESGGGLVQPGGSLRLSCAASGFTFSSYPMNWVRQGPGKGLEWVSSISSSGASPYYADSVKGRFTISRDNSKNTLYLQMNSLRADDTAVYYCAREDYYYYYMDVWGKGTTVTVSS VL: ETTLTQSPSTLSASVGDRVTITCRASESISSWLAWYQQKPGKAPKLLIFKASTVQSGVPSRFSGSGSGTEFTLTISSLQPDDFATYYCQQYNSYLLTFGGGTKVEIK | 1.35 nM | 1.07 nM | > 25 µg/mL
ADI-41580 (antibody, V domains shown, also called Ab 854; Antibody Number 854) VH: QVQLQQWGAGLLKPSETLSLTCAVYGGSFSGYYWSWIRQPPGKGLEWIGEMNHSGGSNYNPSFKSRVTISVDTSKKYFSLNLSSVTAADTAIYYCARTPFYYESTGYYYYYYGMDVWGQGTTVTVSS VL: DIVMTQTPDSLAVSLGERATINCKSSQSVSHSSNNKNYLSWYQQKPGQPPKLLIYWASIRESEAPDRFTGSGSGTDFTLTISSLQAEDVAVYYCQQYYTAPITFGQGTRLEIK | 2.98 nM | 1.17 nM | 1.11 µg/mL
ADI-41569 (antibody, V domains shown, also called Ab 847; Antibody Number 847) VH: EVQLLESGAEVKKPGSSVKVSCKASGGTFSTYAISWVRQAPGQGLEWMGGIIPVLGTTKYAQKFQDRVTITADESTSTAYMDLSGLRSDDTAVYYCARGVWGDCGRASCLFDWYFDLWGRGTLVTVSS VL: EIVMTQSPATLSVSPGERVTLSCSASQTVSSNLAWYQQKPGQAPRLLIYGASIRATDIPARFSGSGSRTEFTLTISSLQSEDFAVYYCQQYNNRPPLTFGGGTKVEIK | 3.3 nM | 1.61 nM | > 25 µg/mL
